Target: C3 degradation products deposited on the bacterial surface (human) (UniProt P01024)
Assay: flow cytometry on cells; S. aureus JE2Δsbi spa::Tn opsonised in 10% NHS, incubated with polyclonal anti-human C3d antibody or not, washed, then probed with biotin-labelled Sbi-IV and streptavidin-AF488; gMFI

Sequence of UniProt P01024 (P01024 23-1663): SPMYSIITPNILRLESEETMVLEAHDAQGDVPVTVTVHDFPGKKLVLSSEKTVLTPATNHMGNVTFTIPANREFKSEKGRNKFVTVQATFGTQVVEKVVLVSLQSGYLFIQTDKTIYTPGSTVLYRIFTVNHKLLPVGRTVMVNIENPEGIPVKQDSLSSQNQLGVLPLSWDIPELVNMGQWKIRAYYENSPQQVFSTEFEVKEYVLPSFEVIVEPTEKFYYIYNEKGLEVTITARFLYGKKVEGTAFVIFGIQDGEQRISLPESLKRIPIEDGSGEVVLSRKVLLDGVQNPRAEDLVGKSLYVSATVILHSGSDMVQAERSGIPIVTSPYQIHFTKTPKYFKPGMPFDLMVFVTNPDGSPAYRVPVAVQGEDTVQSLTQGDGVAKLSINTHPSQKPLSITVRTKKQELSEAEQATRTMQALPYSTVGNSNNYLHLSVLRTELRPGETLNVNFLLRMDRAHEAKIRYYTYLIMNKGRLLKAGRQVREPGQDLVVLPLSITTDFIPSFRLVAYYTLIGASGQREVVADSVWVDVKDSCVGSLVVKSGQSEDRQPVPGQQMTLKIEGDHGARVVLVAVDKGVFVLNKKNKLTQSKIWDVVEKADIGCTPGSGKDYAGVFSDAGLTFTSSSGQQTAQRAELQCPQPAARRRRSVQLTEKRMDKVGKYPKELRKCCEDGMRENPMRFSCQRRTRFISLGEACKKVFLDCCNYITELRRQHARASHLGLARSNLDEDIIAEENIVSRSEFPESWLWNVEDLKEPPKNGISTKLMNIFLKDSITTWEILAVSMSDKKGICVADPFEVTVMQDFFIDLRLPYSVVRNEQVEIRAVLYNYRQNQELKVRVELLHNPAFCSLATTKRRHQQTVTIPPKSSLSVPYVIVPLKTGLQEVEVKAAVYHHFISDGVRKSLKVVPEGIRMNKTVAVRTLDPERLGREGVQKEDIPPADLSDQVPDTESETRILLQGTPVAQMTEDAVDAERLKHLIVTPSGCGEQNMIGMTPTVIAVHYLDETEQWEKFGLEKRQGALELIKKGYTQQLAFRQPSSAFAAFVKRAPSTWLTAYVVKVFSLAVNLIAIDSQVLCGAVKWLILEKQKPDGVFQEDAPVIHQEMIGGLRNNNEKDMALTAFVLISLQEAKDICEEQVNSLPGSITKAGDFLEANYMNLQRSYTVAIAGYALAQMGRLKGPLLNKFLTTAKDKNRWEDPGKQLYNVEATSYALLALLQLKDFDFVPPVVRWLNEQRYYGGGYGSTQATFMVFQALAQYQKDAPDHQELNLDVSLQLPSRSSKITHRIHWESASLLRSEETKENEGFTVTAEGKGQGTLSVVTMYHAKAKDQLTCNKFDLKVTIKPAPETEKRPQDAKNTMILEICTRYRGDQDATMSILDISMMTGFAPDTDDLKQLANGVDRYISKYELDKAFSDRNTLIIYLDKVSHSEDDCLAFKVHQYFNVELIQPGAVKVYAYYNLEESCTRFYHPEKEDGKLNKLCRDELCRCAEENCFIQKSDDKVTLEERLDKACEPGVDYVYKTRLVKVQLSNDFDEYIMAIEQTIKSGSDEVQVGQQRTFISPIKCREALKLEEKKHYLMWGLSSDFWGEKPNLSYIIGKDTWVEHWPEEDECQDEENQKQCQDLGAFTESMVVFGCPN

**Q.** “biotin-labelled Sbi-IV (complement C3 binding domain IV of the staphylococcal Sbi protein) (from UniProt Q931F4 198-266) (domain or fragment)” was tested. Which percent reduction of binding after polyclonal anti-C3d antibodies did it give?
**A.** 50%

Reference: article PMC9492775
